Residue numbers refer to the chain shown, from its start. In names and notes the source's numbering stands.
Columns and labels:
[1] = target: T1, human CD24 on cells (human, UniProt P25063 27-59); assay: flow cytometry (GMFI), MCF-7 cells; EC50 table under the graphs
T1 construct: whole, on cells; One molecule for all cell lines; the cell line is named under assay or readout; also called cell surface CD24; cell-based CD24
T1 chain (looked up): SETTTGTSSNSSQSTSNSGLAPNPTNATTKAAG

[2] = target: T2, Human CD24 (human, UniProt P25063 27-59, limits assumed); assay: affinity ranking; antibody as ligand, Human CD24 as analyte
T2 chain (looked up): T1 chain (looked up)

[3] = target: T1, human CD24 on cells; assay: flow cytometry (GMFI), SKOV3 cells; EC50 table under the graphs [Cont'd) B]
[4] = target: T1, human CD24 on cells; assay: cell-based or functional assay
[5] = target: T1, human CD24 on cells; assay: flow cytometry (MFI), NALM6 cells [Cont'd) B]
[6] = target: T2, Human CD24; assay: SPR, second 1:1 binding column set
[7] = target: T2, Human CD24; assay: SPR affinity ranking, 1:1 binding, analyte conc. 19.71 nM

B1: VH + VL (4451 parental variable regions, Table 7) (antibody, V domains shown)
VH: EVQLQQSGPELVKPGASVKISCKASGYDFTGYHMNWVKQSPEKSLEWIGEINPITSDKTFNQKFKSKATLTVDRSSSTAYMYLKSLTSEDSAVYYCARRDYGTSLDYWGQGTTLTVSS
VL: DVQITQSPSYLAASPGETITIYCRASKSISKYLAWYQEKPEKTNRLLIYAGSTLHSGIPSRFRGSGSGKDFTLTVSGLEPEDFAMYYCQQHNEYPITFGAGTKLELK
EC50 [1]: 0.4 µg/mL
Kd [2]: 3.23 nM
koff [2]: 0.00937 s⁻¹
kon [2]: 2.9e+06 M⁻¹ s⁻¹
EC50 [3]: 0.43 µg/mL

B2: 89-E8C12 (4428), IgG4, Kappa (antibody, V domains shown)
VH: B1 VH with H33Y, V37M, D57H, K58N, S66A, Y82H
VL: B1 VL with N44I, H55Q, K69T, I96L
EC50 of Phagocytosis assay, IgG4, Kappa; HEK293-CD24 [4]: 0.43 µg/mL
EC50 of Phagocytosis assay, IgG4, Kappa; MCF-7 [4]: 0.96 µg/mL
EC50 of Phagocytosis assay, IgG4, Kappa; NALM6 [4]: 0.57 µg/mL
EC50 of Phagocytosis assay, IgG4, Kappa; OVCAR3 [4]: 0.16 µg/mL
EC50 (read off the curve) [5]: ~0.5 µg/mL

B3: VH1 + VL3 (4451H) (antibody, V domains shown)
VH: QVQLVQSGAEVKKPGASVKVSCKASGYDFTGYHMNWVRQAPGQGLEWMGEINPITSDKTFNQKFKSRVTMTRDTSISTAYMELSRLRSDDTAVYYCARRDYGTSLDYWGQGTTVTVSS
VL: DIQLTQSPSFLSASVGDRVTITCRASKSISKYLAWYQQKPGKAPKLLIYAGSTLHSGIPSRFRGSGSGTEFTLTISSLQPEDFATYYCQQHNEYPITFGQGTKLEIK
notes: also called Antibody No 0; Parental
EC50 [1]: 0.39 µg/mL
apparent Kd (pooled screen) [2]: 23.1 nM
apparent koff (pooled screen) [2]: 0.0158 s⁻¹
apparent kon (pooled screen) [2]: 685000 M⁻¹ s⁻¹
apparent Kd (pooled screen) [6]: 25.1 nM
apparent koff (pooled screen) [6]: 0.0192 s⁻¹
apparent kon (pooled screen) [6]: 763000 M⁻¹ s⁻¹
EC50 [3]: 0.44 µg/mL
apparent Kd (pooled screen) [7]: 172 nM
apparent koff (pooled screen) [7]: 0.0275 s⁻¹
apparent kon (pooled screen) [7]: 160000 M⁻¹ s⁻¹

B4: Antibody No 16, lead clone of 4451H (HC N35G, T59Y; LC S30K) (antibody, V domains shown)
VH: B3 VH with N35G, T59Y
VL: B3 VL with S30K
Kd [6]: 6.99 nM
koff [6]: 0.00808 s⁻¹
kon [6]: 1.16e+06 M⁻¹ s⁻¹
Kd [7]: 7.51 nM
koff [7]: 0.016 s⁻¹
kon [7]: 2.13e+06 M⁻¹ s⁻¹

B5: Antibody No 17, lead clone of 4451H (HC N35G, T59Y; LC L33G) (antibody, V domains shown)
VH: B3 VH with N35G, T59Y
VL: B3 VL with L33G
Kd [6]: 3.41 nM
koff [6]: 0.00419 s⁻¹
kon [6]: 1.23e+06 M⁻¹ s⁻¹
Kd [7]: 4.42 nM
koff [7]: 0.0069 s⁻¹
kon [7]: 1.56e+06 M⁻¹ s⁻¹

B6: VH1 + VL1 (humanized 4451) (antibody, V domains shown)
VH: B3 VH
VL: B3 VL with I58V, R63S
notes: IgG expressed in HEK293
EC50 [1]: 0.43 µg/mL
Kd [2]: 17.6 nM
koff [2]: 0.0169 s⁻¹
kon [2]: 958000 M⁻¹ s⁻¹
EC50 [3]: 0.45 µg/mL

B7: VH1 + VL2 (humanized 4451) (antibody, V domains shown)
VH: B3 VH
VL: B3 VL with K45R, I58V
notes: IgG expressed in HEK293
EC50 [1]: 0.4 µg/mL
Kd [2]: 13.8 nM
koff [2]: 0.0239 s⁻¹
kon [2]: 1.74e+06 M⁻¹ s⁻¹
EC50 [3]: 0.38 µg/mL

B8: VH1 + VL4 (humanized 4451) (antibody, V domains shown)
VH: B3 VH
VL: B3 VL with T22Y, K45R
notes: IgG expressed in HEK293
EC50 [1]: 0.4 µg/mL
Kd [2]: 15 nM
koff [2]: 0.0241 s⁻¹
kon [2]: 1.61e+06 M⁻¹ s⁻¹
EC50 [3]: 0.43 µg/mL

B9: VH2 + VL1 (humanized 4451) (antibody, V domains shown)
VH: B3 VH with M48I, R72V
VL: B3 VL with I58V, R63S
notes: IgG expressed in HEK293
EC50 [1]: 0.45 µg/mL
Kd [2]: 20.9 nM
koff [2]: 0.0264 s⁻¹
kon [2]: 1.26e+06 M⁻¹ s⁻¹
EC50 [3]: 0.45 µg/mL

B10: VH2 + VL2 (humanized 4451) (antibody, V domains shown)
VH: B3 VH with M48I, R72V
VL: B3 VL with K45R, I58V
notes: IgG expressed in HEK293
EC50 [1]: 0.75 µg/mL
Kd [2]: 22 nM
koff [2]: 0.0234 s⁻¹
kon [2]: 1.06e+06 M⁻¹ s⁻¹

B11: VH2 + VL3 (humanized 4451) (antibody, V domains shown)
VH: B3 VH with M48I, R72V
VL: B3 VL
notes: IgG expressed in HEK293
EC50 [1]: 0.42 µg/mL
Kd [2]: 19.4 nM
koff [2]: 0.023 s⁻¹
kon [2]: 1.18e+06 M⁻¹ s⁻¹
EC50 [3]: 0.42 µg/mL

B12: VH3 + VL1 (humanized 4451) (antibody, V domains shown)
VH: B3 VH with M48I, V68A, R72V
VL: B3 VL with I58V, R63S
notes: IgG expressed in HEK293
EC50 [1]: 0.42 µg/mL
Kd [2]: 26 nM
koff [2]: 0.0294 s⁻¹
kon [2]: 1.13e+06 M⁻¹ s⁻¹
EC50 [3]: 0.42 µg/mL

B13: VH3 + VL2 (humanized 4451) (antibody, V domains shown)
VH: B3 VH with M48I, V68A, R72V
VL: B3 VL with K45R, I58V
notes: IgG expressed in HEK293
EC50 [1]: 0.52 µg/mL
Kd [2]: 23.7 nM
koff [2]: 0.0262 s⁻¹
kon [2]: 1.1e+06 M⁻¹ s⁻¹
EC50 [3]: 0.52 µg/mL

B14: VH3 + VL3 (humanized 4451) (antibody, V domains shown)
VH: B3 VH with M48I, V68A, R72V
VL: B3 VL
notes: IgG expressed in HEK293
EC50 [1]: 0.42 µg/mL
Kd [2]: 23.8 nM
koff [2]: 0.027 s⁻¹
kon [2]: 1.13e+06 M⁻¹ s⁻¹
EC50 [3]: 0.42 µg/mL

B15: VH3 + VL4 (humanized 4451) (antibody, V domains shown)
VH: B3 VH with M48I, V68A, R72V
VL: B3 VL with T22Y, K45R
notes: IgG expressed in HEK293
EC50 [1]: 0.41 µg/mL
Kd [2]: 24.8 nM
koff [2]: 0.0163 s⁻¹
kon [2]: 655000 M⁻¹ s⁻¹
EC50 [3]: 0.42 µg/mL

B16: VH4 + VL1 (humanized 4451) (antibody, V domains shown)
VH: B3 VH with R38K, M48I, V68A, R72V, T74R
VL: B3 VL with I58V, R63S
notes: IgG expressed in HEK293
EC50 [1]: 0.45 µg/mL
Kd [2]: 8.33 nM
koff [2]: 0.0128 s⁻¹
kon [2]: 1.54e+06 M⁻¹ s⁻¹
EC50 [3]: 0.43 µg/mL

B17: VH4 + VL2 (humanized 4451) (antibody, V domains shown)
VH: B3 VH with R38K, M48I, V68A, R72V, T74R
VL: B3 VL with K45R, I58V
notes: IgG expressed in HEK293
EC50 [1]: 0.44 µg/mL
Kd [2]: 9 nM
koff [2]: 0.0115 s⁻¹
kon [2]: 1.28e+06 M⁻¹ s⁻¹
EC50 [3]: 0.43 µg/mL

B18: VH4 + VL3 (humanized 4451) (antibody, V domains shown)
VH: B3 VH with R38K, M48I, V68A, R72V, T74R
VL: B3 VL
notes: IgG expressed in HEK293
EC50 [1]: 0.45 µg/mL
Kd [2]: 8.84 nM
koff [2]: 0.0119 s⁻¹
kon [2]: 1.34e+06 M⁻¹ s⁻¹
EC50 [3]: 0.44 µg/mL

B19: VH4 + VL4 (humanized 4451) (antibody, V domains shown)
VH: B3 VH with R38K, M48I, V68A, R72V, T74R
VL: B3 VL with T22Y, K45R
notes: IgG expressed in HEK293
EC50 [1]: 0.39 µg/mL
Kd [2]: 7.94 nM
koff [2]: 0.0122 s⁻¹
kon [2]: 1.53e+06 M⁻¹ s⁻¹

— patent US20260265403A1 (TJ BIOPHARMA SHANGHAI, published 2026)
